Measurements taken from publication doi:10.1101/2020.06.30.176701 (bioRxiv, 2020).
Like-named read-outs stand apart in the source and are kept apart here.

B1: archaeal elongation factor 2 (aEF2) of Pyrococcus furiosus (natural protein, UniProt P61877 1-732, looked up)
chain: MGRREEMIAKIKELMLQPERIRNIGIAAHIDHGKTTLSDNLLAGAGMISEELAGKQLVLDFDEQEQARGITINAANVSMVHNYEGKDYLINLIDTPGHVDFGGDVTRAMRAIDGVIIVVDAVEGVMPQTETVVRQALREYVKPVLFINKVDRLIRELKLTPQQMMERFSKIIMDVNRLIQRYAPEEYKKKWMVRVEDGSVAFGSAYYNWALSVPFMQRTGVKFNEIIDLTLKGDNKTLRQRAPLHVVVLDMVVRHLPSPIEAQKYRIPHLWQGDINSKIGQAMLNCDPKGKMVMVITKIIIDKHAGEVATGRVWSGTVRSGQEVYLINSKRKGRIQQVGIYMGPERINMEAVPAGNIVAVTGLRDAMAGETVAEEQIEPFEALHYVSEPVVTVAIEAKNVKDLPRLIEALRQLAKEDPTLHVKIDEETGQHLLSGMGELHLEVKLYKLQKDWGIEVDVSEPIVVYRESITKPSPIVEGKSPNKHNRFYVVVEPMPDEIYQAIKEGIIPEGRVKDPKAVAKKLAELGMDYDIARGVVDIYNGNMFLDNTKGIQYLNEVMDLLIDGFHQAMDEGPLAKEPVMKVIVRLVDAQVHEDNVHRGPAQIYPAIRTAIHCAMMKAGPVLYEPYQKVIINIPYEYMGAVSREISQRRGQLIDMRQEGEVMTIIAEAPVAEMFGFAGAIRSATSGRALWSTEHAGFKRVPNELAQQIIRQIRQRKGLDPNPPTEKDVCPLF
B2: archaeal elongation factor 1A (aEF1A) of Pyrococcus furiosus (natural protein, UniProt Q8U152 1-428, looked up)
chain: MPKDKPHVNIVFIGHVDHGKSTTIGRLLYDTGNIPEQIIKKFEEMGEKGKSFKFAWVMDRLKEERERGITIDVAHTKFETPHRYITIIDAPGHRDFVKNMITGASQADAAVLVVAATDGVMPQTKEHAFLARTLGIKHIIVAINKMDMVNYNQKRFEEVKAQVEKLLKMLGYKDFPVIPISAWEGENVVKKSDKMPWYNGPTLIEALDQIPEPEKPVDKPLRIPIQDVYSIKGVGTVPVGRVETGKLRVGEVVIFEPASTIFHKPIQGEVKSIEMHHEPLEEALPGDNIGFNVRGVSKNDIKRGDVAGHTTNPPTVVRTKDTFKAQIIVLNHPTAITVGYSPVLHAHTAQVPVRFEQLLAKLDPKTGNIVEENPQFIKTGDAAIVILRPMKPVVLEPVKEIPQLGRFAIRDMGMTIAAGMVISIQRGE

How the values were obtained:
Assay in all cases: high-speed atomic force microscopy
[1] = biological target: T1, archaeal ribosomal P-stalk complex aP0•(aP1•aP1)3 (Pyrococcus horikoshii, UniProt O74109 1-342; O57705 1-108)
T1 sequence (looked up) 1: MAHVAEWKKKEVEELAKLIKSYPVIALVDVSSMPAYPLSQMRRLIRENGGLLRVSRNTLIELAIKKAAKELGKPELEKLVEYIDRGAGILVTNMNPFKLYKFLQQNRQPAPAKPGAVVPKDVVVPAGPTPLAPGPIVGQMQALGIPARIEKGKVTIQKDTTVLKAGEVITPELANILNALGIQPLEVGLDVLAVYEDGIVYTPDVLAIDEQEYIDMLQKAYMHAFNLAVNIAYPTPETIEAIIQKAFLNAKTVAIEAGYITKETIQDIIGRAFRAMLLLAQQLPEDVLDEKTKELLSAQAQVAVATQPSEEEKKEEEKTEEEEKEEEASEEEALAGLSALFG
T1 sequence (looked up) 2: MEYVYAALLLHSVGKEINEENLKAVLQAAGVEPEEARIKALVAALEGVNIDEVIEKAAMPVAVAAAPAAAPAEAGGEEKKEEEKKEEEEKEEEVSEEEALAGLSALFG

[2] = biological target: T1, archaeal ribosomal P-stalk complex …; remark: listed apart in the source
[3] = biological target: T1, archaeal ribosomal P-stalk complex …; remark: listed apart in the source
[4] = biological target: T1, archaeal ribosomal P-stalk complex …; remark: listed apart in the source
[5] = biological target: T1, archaeal ribosomal P-stalk complex …; remark: listed apart in the source

Binder | fold distribution near the P-stalk relative to the opposite control area [1] | stoichiometry N [2] | fold distribution near the P-stalk relative to the opposite control area [3] | fold distribution near the P-stalk relative to the opposite control area [4] | fold distribution near the P-stalk relative to the opposite control area [5]
B1 | ~4.3 fold | ≤ 7 aEF2 molecules per P-stalk | 6.6 fold | – | –
B2 | – | – | – | 2.6 fold | 4.2 fold
